Results on 41 sequences are retold here after the nanobody polyreactivity screen of Harvey et al. (2022).

A short description of this data set: yeast display, Sf9 membrane polyspecificity reagent, FACS + sequencing; frameworks hold sequencing errors. The method, boiled down:
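Polyreactivity labels are assigned by the sorting gate from which each nanobody was recovered. The gates were low and high (top ~1%), set on anti-HA fluorescence for expression and streptavidin fluorescence for reagent binding. Before sorting, galactose-induced (36–48 hours) yeast display cells were stained for 1 hour at 4 °C with 10% biotinylated, detergent-solubilized Sf9 membrane reagent.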
For the sequence “QVQLVESGGGLVQAGGSLRLSCAASGRTLVTNAMGWYRQAPGKERELVAAIDSDDGTTYYADSVKGRFTISRDNAKKTVYLQMNSLKPEDTAVYYCAAESYWRDDYWGQGTQVTVSS”, the “polyreactivity (PSR sort gate)” value is recorded as “low polyreactivity”.

In the case of “QVQLVESGGGLVQAGGSLRLSCAASGRTISHNAMGWYRQPPGKESELVAAISSGGGSTYYGDSVKGRFTISRDNAKNTVYVQMNSLKPEDTAVYYCAAPSYGRSRGFGLGINKYDYWGQGTQVTVSS”, the “polyreactivity (PSR sort gate)” value was “high polyreactivity”.

With “QVQLVESGGGLVQAGGSLRLSCAASGRTFPGNAMGWYRQAPGKERELVAAINSRGSTYYADSVKGRFTISRDNAKHTVYLKMNSLKPEDTAVYYSAAYFGHYWRYYYWGQGTQVNVSS”, the “polyreactivity (PSR sort gate)” value was “high polyreactivity”.

With “QVQLVESGGGLVQAGGSIRLSCAASGRTFARNAMGWYRKAPGKERELVAAISSSGGSTYYADSVKGRFTISRDNAKNTVYLQMNSLKPEDTAVYYCARYSSFTYDYWGQGTQVTVSS”, the “polyreactivity (PSR sort gate)” value is given as “high polyreactivity”.

In the case of “QVQLVESGGGLVQAGGSLRLSCAASGSIFVFNAMGWYRQAPGKERELVAAITSGGRTYYADSVKGRFTISRDNAKNTVYLQMNSLKPEDTAVYYCAAEFWFFAGWAYEYWGQGTQVTVSS”, the “polyreactivity (PSR sort gate)” value is “high polyreactivity”.

With “QVQLVESGGGLVQAGGSLRLSCAASGSTIRSNAMGWYRQAPGKERELVAAISRTGGRTYYADSVKGRFTISRDNAKNTVYLQMNSLKPEDTAVYYCARPDKRLEYSENYYWGQGTQVTVSS”, the “polyreactivity (PSR sort gate)” value is “high polyreactivity”.

In the case of “QVQLVESGGGLVQAGGSLRLSCAASGRIFTNNARGWYSQAPGKERELVDAINVSGGRTYYADSVKGRFTISRDNAKNTVYLQMNSLKPEDTAVYYCNKVKETYMDNWGQGTQVTVSS”, the “polyreactivity (PSR sort gate)” value was “high polyreactivity”.

On to “QVQLVESGGGLVQAGGSLRLSCAASGSIFGQNAMGWYRQAPGKEMELVAAIRVSGGSTYYADSVKGRFTNSRDNAKNTVYLQKNSLKPEDTAVYYCNARYRGYYGPKTHGVTYYYWGQGTQVTVSS”, for which the “polyreactivity (PSR sort gate)” value is listed as “low polyreactivity”.

On to “QVQLVESGGGLVQAGGSLRLSSAASGRTFTHYAMGWYSQAPGKERELGASISDGGRTHYADSVKGRFTISRDNAKNTVSLQMNSLKPVDPAVYYCATDRYPTRRYDYWGQGSQVTVSS”, for which the “polyreactivity (PSR sort gate)” value is reported as “low polyreactivity”.

Consider “QVQLVDSGGRLVQAGGSLRLSCAASGRIFVNNAMRWYRQAPGKERELVAAITRGGSTYYADSVKGRFTLSRDNAKNTVYLQMNSLKPEDTAVYYCDSDYQRNDFRWYDYWGQGTHVTVSS”, for which the “polyreactivity (PSR sort gate)” value is recorded as “low polyreactivity”.

On to “QVHLVESGGGLVQAGGSLRLSCAASGRTIGWNVMGWYRQAPGKERELVAAISGSGITYADSVKGRFTISRDNAKNTVYLQMNSLKPEDTAVYYCAARARRYTDEYDYWGQGTQVTLSS”, for which the “polyreactivity (PSR sort gate)” value is “low polyreactivity”.

As for “QVQLVESGGGLVQAGGSLRLSCAATGRTFPAYAMGWYRQAPGKERELVAAITINGGSTYYADSVKGRFTISRDNAKNSVYLQMNSLKPEDTAVYYCAAYYASPRHGFWGQGTQVTVSS”, the “polyreactivity (PSR sort gate)” value was “low polyreactivity”.

Regarding “QVQLVETGGGLVQAGGSLSLSCAASGRTCRFYAMGWYRQAPGKERELVGAISWNGGRTYYADSVKGRFTISRDNAKNSVYLQMNSLKPEDTAVYFCNARAYGSRKFEYWGQGTQVTVSS”, the “polyreactivity (PSR sort gate)” value is recorded as “high polyreactivity”.

As to “QVQLVESGGGLVQAGGSLRLSCAASGSTFPYAMGWYTQAPGKEREFVAAITRSGGSTYYADSVKGRFTISRDNAKNTVYLQMNSLKPEDTAVYYATQRCVWGYHYWGQGTQVTVSS”, the “polyreactivity (PSR sort gate)” value is listed as “high polyreactivity”.

On to “QVQLVESGGGLVQAGGSLRLSCAACGTIFRRYATGSYRQAPGKERELVAAISSGGSTYADSVKGRFTISRDNAKNTVYFQMNSLKPEDTAVYYCAAYYQLGRHPGTPNGYDYWGHGTQVTVSS”, for which the “polyreactivity (PSR sort gate)” value is “low polyreactivity”.

As to “QVQLVESGGGLFQAGGSLRLSCAASGFTFSFNTMGWYRQAPVKERELVAAIRNNGGGTNYADSVKGRFTISRDKAMNTVYLQMNSLKPEDTAVYYCAADRIYAWFGRLYYWGQGTQVTGSS”, the “polyreactivity (PSR sort gate)” value was “low polyreactivity”.

For “QVQIVESGGGLVQAGVSLRLSCAASGRTSDGYAMGWYRQAPGKESELVAGITEGGGDTYYADSVKGRFTISRDNAKNTVYLQMNSLKPEDTAVYYCNAVEGSRLPYDYWGQGTQVTVSS”, the “polyreactivity (PSR sort gate)” value was “low polyreactivity”.

For “QVQLVESGGGLVQAGGSLRLSCAASGSTFVVYAMGWYRQAPGKERELVAAISYRAGITYYADSVKGRFTISRDNAKNTVYLQMNSLKPEDTAVYYWAADRYYGVGSGYWGQGTQVTVSS”, the “polyreactivity (PSR sort gate)” value was “high polyreactivity”.

On to “QVQLVESGGGLVQAGGSLRLSCAASGSTFGRYAMGWYRQAPGKERELVAAISRGTTTNYADSVKGRFTIARDNAKNTVYLQMNSLKPEDTAVYYCAADQPSKRYYSWGQGTQVTVSS”, for which the “polyreactivity (PSR sort gate)” value is reported as “low polyreactivity”.

As for “QVQLVESGGGLVQAGGSLRLSCAASGRTFATNAMGWYRQAPGKERELVADISGGGSTYYADSVKGRFTISRDNAKNTVYLQMNSLKPEDTAVYYCAARDYHWFQWYDYWGQGTQVTVSS”, the “polyreactivity (PSR sort gate)” value was “low polyreactivity”.

For “QVQLVESGGGLVQAGGSLRLSCAASGITFIRNAMGWYRQAPGKERELVAAISYRGGSTYYADSVKGRFTISRDNAKNTVYLQMNSLKPEDTAVYYCAAKRYGYKMYYWGQGTQVTVSS”, the “polyreactivity (PSR sort gate)” value is on record as “high polyreactivity”.

Consider “QVQLVESGGGLVQAGGSLRLTCAASGSIFGAKAIGWYIQAPGKERELVAALTWSDTSTYYADSVKGRFTISRDNAKNTVYLQMNSLKPEDTAVYYCAAEYEWVTWGWGYYYWGQGTQVTVSS”, for which the “polyreactivity (PSR sort gate)” value is on record as “high polyreactivity”.

On to “QVQLVESGGGLVQAGGSLRLSCAASGRTFDVNAMGWYRQAPGKERELVAAITWDGGSTYYADSVKGRFTISRDNAKNTVYLQMNSLKPEDTALYYCAADFIQGAWWYVTYRYTYEYWGQGTQVTVSS”, for which the “polyreactivity (PSR sort gate)” value is listed as “low polyreactivity”.

For “QVQLVESGGGLVQAGGSLRLSCAASGSTFVNNAMGWYRQAPGKERELGASITVGGSTYYADSVKGRFTISRDNAKNTVYLQMNSLKPEDTAVYYCAAADYRFWSRYDYWGQGTQVTVSS”, the “polyreactivity (PSR sort gate)” value is reported as “low polyreactivity”.

With “QVQLVESGGGLVQAGGSLRLSCAASGSIFYVYAMGWYIQAPGKERELVASIRWIGDRTYYADSVKGRFTISRDNAKNTVYLQMNSLKPEDTAVYYCAADPRYYGYYYLTPRYYYWGQGTQVTVSS”, the “polyreactivity (PSR sort gate)” value was “high polyreactivity”.

For the sequence “QVQLVESGGGLVQAGGRLRLSCAASGRTFKDYAMGWYRQAPGKERELVAGINGSGGSTYYADSVKGRFTISRDNAKNTVYLQMNSLKPEDTAVYYCNADFGYWWDGRRYDYWGQGTQVTVSS”, the “polyreactivity (PSR sort gate)” value is reported as “low polyreactivity”.

Regarding “QVKLVESGGGLVQAGGSLRLSCAASGLTYLYTMGWSRQAPGKERELVAAITRSGRTYYADSVKGRFTISRDNAKNTVYLQMNSLKPEDTAVYYCATRTGYQQPDGRYYYWGQGTQVTVSS”, the “polyreactivity (PSR sort gate)” value is “high polyreactivity”.

Take “QVQLVESGGGLVQAGGRLRLSCAASGYTFVVNAMGWYRQAPGKERELVAAITGGDSTNYADSVKGRFTISRDNATNTVYLQMNSLKPEDTAVYYCAKRDVLPFQTVTGSRNDYWGQGTQVTVSS”: the “polyreactivity (PSR sort gate)” value is reported as “low polyreactivity”.

For “QVQLVESVGGLVQAGGSLRLSCAASGITYYGYAMGWYRQAPGKERELVAAISKSGGSTHYADSVKGRFTISRDNAKNTVYLQMNSLKPEDTAVYYCNSRSLVFPITFWEYDYWGQGTQVTVSS”, the “polyreactivity (PSR sort gate)” value was “low polyreactivity”.

Regarding “QVQLVESGGGLVQAGGSLRLSCAASGSTFGIYARGGYRQAPGNERELVAAISWRGGRTYYADSVKGRFTISRDNAKNTVYLQMNSLKPEDTAVYYCAADLAVYYIFLALEFNYWGQGTQVTVSS”, the “polyreactivity (PSR sort gate)” value is on record as “low polyreactivity”.

With “QVQLVESGGGLVQAGGSLRLSFAASGIIFDINAMGWYRQAPGKERELVAAITTSVDSTYYADSVKGRFTISRDNAKNTVYLQMNSLKPEDTAVYYCAAGPGDSGDDYWGQGTQVTVSS”, the “polyreactivity (PSR sort gate)” value was “low polyreactivity”.

Turning to “QVQLVESGGGLVQAGGSLRLSCAASGIIFWLYTMGWYRQAPGKERELVAAITSGGSTYYAESVKGRFTISRDNAKNTVYLQMNSLKPEDTAVYYCAAVSRAPGLRYDYWGQGTQVTVSS”, the “polyreactivity (PSR sort gate)” value is “high polyreactivity”.

For the sequence “QDQLVESGGGLVQAGGSLRLSCAASGIIFPQYTMGWYRQAPGKERELVAVITSGGSTYYADSVKGRFTISRDNAKNTVYLQMNSLKTEDTAVYYCAADAFYKFDYWGQGTQVTVSS”, the “polyreactivity (PSR sort gate)” value was “high polyreactivity”.

Regarding “QVQLVESGGGLVQAGGSLRLSCAASGSTFNKYAMGWYRQAPGKERELVAAIRSNGVRTYYADSVKGRFTISRDNAKNTVYLQMNSLKPEDTAVYYCNKRYTYRYDYWGQGTQVTVSS”, the “polyreactivity (PSR sort gate)” value was “high polyreactivity”.

In the case of “QVQLVETGGGLVQAGGSLRLSCAASGFIFVKYAMGWYRQAPGKERELVAAITTSGTGTFYADSVKGRFTISRDNAKNTVYLQMNSLKPVDTAVYYCNALGHPGDDWGQVTQVTVSS”, the “polyreactivity (PSR sort gate)” value is “low polyreactivity”.

With “QVQLVESGGGLVQAGGSLRLSCAASGFTFYRYARGWYRQAPGKERELVAAISSDGTTYYADSVKGRFTISRDNATNTVYLQMNSLKPEDTAVYYCAKRGYYRSRRYDYWGQGTQVTVSS”, the “polyreactivity (PSR sort gate)” value was “high polyreactivity”.

On to “QVQLVESGGGLVQAGGSLRLSCAASGRIFQYYDMGWYRQAPGKERELVATITSGGSTNYADSVKGRFTISRDNAKNTVYLQMNSLKPEDTAVYYCAALAYTASDYQPYDATEYNYWGQGTQVTVSS”, for which the “polyreactivity (PSR sort gate)” value was “low polyreactivity”.

As to “QVQLVESGGGLVQAGGSLRLSCAASGFTFYYNAMGWYRQAPGKERELVASITRSGGRTYYADSVKGRFTISRDNAMNTVYLKMNSLKPEDTAVYYCARRYPRGYYWGQGTQVTVSS”, the “polyreactivity (PSR sort gate)” value is on record as “high polyreactivity”.

Turning to “QVQLVESGVGLVQAGGSLRLSCAATGFTFDENAMGWYRQAPGINYSGASTYYAYSVKGRFTISRDNAKNTVYLQMNSLKPEDTAVYYCAAEVVAQMNYWGQGTQVTVSS”, the “polyreactivity (PSR sort gate)” value was “low polyreactivity”.

In the case of “QLQLVESGGGLVQAGGSLRLSCAASGFTFYVNAMGWYRQDPGKETEFVAAIDWSDTSTYYADSVKGRFTISRDNAKNTVYLQMISLKPVDTAVYYCAADFSPYDYDYWGQGTQVTVSS”, the “polyreactivity (PSR sort gate)” value is reported as “high polyreactivity”.

As to “QVQLVESGGGLVQAGGSLRLSCAASGRTFYRYAMGWYRQAPGKERLVAAITWNGGSTYYADSVKGRFTISRDNAKNTVYLQMNSLNPEDTAVYYCAATFGGVSWRRPHRFDYWGQGTQVTVSS”, the “polyreactivity (PSR sort gate)” value was “high polyreactivity”.
